Our source for the Kd and fold lower affinity than SecY for ribosomes values is paper PMC3268725.

“And” between values parts separate entries of the source, which are not always exact repeats. Identical values can stand only once.

The assay addresses E. coli 70S ribosomes (nontranslating, salt-washed) (E. coli). As to the kind of experiment: co-sedimentation.

For orientation: Kd means the constant that tells how readily two partners part at equilibrium. For “SecYHisEG complex, purified, in detergent (from UniProt P0AGA2;P0AG96;P0AG99)”, the dissociation constant Kd worked out at 150 nM.

B1: His-tagged YidC, purified (natural protein)
chain: MDSQRNLLVIALLFVSFMIWQAWEQDKNPQPQAQQTTQTTTTAAGSAADQGVPASGQGKLISVKTDVLDLTINTRGGDVEQALLPAYPKELNSTQPFQLLETSPQFIYQAQSGLTGRDGPDNPANGPRPLYNVEKDAYVLAEGQNELQVPMTYTDAAGNTFTKTFVLKRGDYAVNVNYNVQNAGEKPLEISSFGQLKQSITLPPHLDTGSSNFALHTFRGAAYSTPDEKYEKYKFDTIADNENLNISSKGGWVAMLQQYFATAWIPHNDGTNNFYTANLGNGIAAIGYKSQPVLVQPGQTGAMNSTLWVGPEIQDKMAAVAPHLDLTVDYGWLWFISQPLFKLLKWIHSFVGNWGFSIIIITFIVRGIMYPLTKAQYTSMAKMRMLQPKIQAMRERLGDDKQRISQEMMALYKAEKVNPLGGCFPLLIQMPIFLALYYMLMGSVELRQAPFALWIHDLSAQDPYYILPILMGVTMFFIQKMSPTTVTDPMQQKIMTFMPVIFTVFFLWFPSGLVLYYIVSNLVTIIQQQLIYRGLEKRGLHSREKKKS
Regarding B1, the fold lower affinity than SecY for ribosomes is 5 times lower and 10 times lower.
